# T1: TAP-tagged HMO1 (S. cerevisiae, UniProt Q03973 1-246)
# T1 sequence: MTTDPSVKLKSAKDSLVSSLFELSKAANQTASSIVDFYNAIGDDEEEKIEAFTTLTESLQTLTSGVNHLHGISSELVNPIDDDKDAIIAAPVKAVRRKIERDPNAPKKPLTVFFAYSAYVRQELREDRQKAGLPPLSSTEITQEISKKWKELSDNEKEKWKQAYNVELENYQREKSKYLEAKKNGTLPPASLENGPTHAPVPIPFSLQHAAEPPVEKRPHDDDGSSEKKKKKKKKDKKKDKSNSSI
# B1: TAF11 (natural protein)
# chain: MTEPQGPLDTIPKVNYPPILTIANYFSTKQMIDQVISEDQDYVTWKLQNLRTGGTSINNQLNKYPKYKYQKTRINQQDPDSINKVPENLIFPQDILQQQTQNSNYEDTNTNEDENEKLAQDEQFKLLVTNLDKDQTNRFEVFHRTSLNKTQVKKLASTVANQTISENIRVFLQAVGKIYAGEIIELAMIVKNKWLTSQMCIEFDKRTKIGYKLKKYLKKLTFSIIENQQYKQDYQSDSVPEDEPDFYFDDEEVDKRETTLGNSLLQSKSLQQSDHNSQDLKLQLIEQYNKLVLQFNKLDVSIEKYNNSPLLPEHIREAWRLYRLQSDTLPNAYWRTQGEGQGSMFR
# B2: TAF1 (natural protein)
# chain: MVKQQGSGKTNLANEDEAYEAIFGGEFGSLEIGSYIGGDEGANSKDYTEHLPDAVDFEDEDELADDDDDLPEESDANLHPAMMTMGAYDDVNENGAVLGIDSNSLNMQLPEINGDLSQQFILEDDGGTPATSNALFMGMDANEIHLATETGVLDGSGANEIGHSQLSIGGVNGNDMSINGGFIMEPDMSDGKHKKATKLDLINHEKYLLKKYFPDFEKGKILKWNKLIYRRSVPYHWHSEISRVKKPFMPLNLKFKVQQDDKRLFNSRTISYVAPIYQGKNNLLQSNSSASRRGLIHVSIDELFPIKEQQKKRKIIHDEKTISEDLLIATDDWDQEKIINQGTSSTATLADSSMTPNLKFSGGYKLKSLIEDVAEDWQWDEDMIIDAKLKESKHAELNMNDEKLLLMIEKTNNLAQQKQQLDSSNLILPLNETILQQKFNLSNDDKYQILKKTHQTKVRSTISNLNIQHSQPAINLQSPFYKVAVPRYQLRHFHRENFGSHIRPGTKIVFSKLKARKRKRDKGKDVKESFSTSQDLTIGDTAPVYLMEYSEQTPVALSKFGMANKLINYYRKANEQDTLRPKLPVGETHVLGVQDKSPFWNFGFVEPGHIVPTLYNNMIRAPVFKHDISGTDFLLTKSSGFGISNRFYLRNINHLFTVGQTFPVEEIPGPNSRKVTSMKATRLKMIIYRILNHNHSKAISIDPIAKHFPDQDYGQNRQKVKEFMKYQRDGPEKGLWRLKDDEKLLDNEAVKSLITPEQISQVESMSQGLQFQEDNEAYNFDSKLKSLEENLLPWNITKNFINSTQMRAMIQIHGVGDPTGCGEGFSFLKTSMKGGFVKSGSPSSNNNSSNKKGTNTHSYNVAQQQKAYDEEIAKTWYTHTKSLSISNPFEEMTNPDEINQTNKHVKTDRDDKKILKIVRKKRDENGIIQRQTIFIRDPRVIQGYIKIKEQDKEDVNKLLEEDTSKINNLEELEKQKKLLQLELANLEKSQQRRAARQNSKRNGGATRTENSVDNGSDLAGVTDGKAARNKGKNTTRRCATCGQIGHIRTNKSCPMYSSKDNPASPK
# Target: T1, TAP-tagged HMO1
# Experiment: TAP purification with immunoblot
row,Binder,percent recovered with HMO1-TAP [%]
1,B1,~0.01
2,B2,~0.01
